Assay results reported in patent US20200325187A1 (Genentech, published 2020).

Molecular target: T1, hVEGF-A (8-109) (human, UniProt P15692 214-315)
T1 sequence (looked up): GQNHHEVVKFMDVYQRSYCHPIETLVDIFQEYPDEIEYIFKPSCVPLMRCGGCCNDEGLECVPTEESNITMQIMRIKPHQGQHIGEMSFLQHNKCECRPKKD
Experiment: spot phage ELISA

Q: Does GCNIMLPFWGCGRDFECLAGCVCQYYQSCGGS (designed binder) [9.54.90-2x63] bind?
A: binds

Q: Does GCNIMLPFWGCGRDFECLAGCVCQYYQSCGFH (designed binder) [9.54.90-2x28] bind?
A: binds

Q: Does GCNIMLPFWGCGRDFECLAGCVCQYYQSCGLS (designed binder) [9.54.90-2x42] bind?
A: binds

Q: Does GCNIMLPFWGCGRDFECLAGCVCQYYQSCGTR (designed binder) [9.54.90-2x36] bind?
A: binds

Q: Does GCNIMLPFWGCGRDFECLAGCVCQYYQSCGIA (designed binder) [9.54.90-2x2] bind?
A: binds

Q: Does GCNIMLPFWGCGRDFECLAGCVCQYYQSCGVH (designed binder) [9.54.90-2x90] bind?
A: binds

Q: Does GCDVMQPYWGCEMDFDCLAGCVCHWYNSCGSL (designed binder) [9.63-36] bind?
A: binds

Q: Does GCDVMQPYWGCEMDFDCLAGCVCHWYNSCGNN (designed binder) [9.63-65] bind?
A: binds

Q: Does GCDVMQPYWGCEMDFDCLAGCVCHWYNSCGEP (designed binder) [9.63.44-16] bind?
A: binds

Q: Does GCDVMQPYWGCEMDFDCLAGCVCHWYNSCGND (designed binder) [9.63-77] bind?
A: binds

Q: Does GCDVMQPYWGCEMDFDCLAGCICHWYNSCGPT (designed binder) [9.63-30] bind?
A: binds

Q: Does GCDVMQPYWGCKQDSDCLAGCVCHWYNSCGEN (designed binder) [9.63-62] bind?
A: binds

Q: Does GCDVMQPYWGCEMDFDCLAGCICHWYNSCGTR (designed binder) [9.63-61] bind?
A: binds

Q: Does GCDVMQPYWGCEMDFDCLAGCVCHWYNSCGYM (designed binder) [9.63.44-54] bind?
A: binds

Q: Does GCDVMQPYWGCEMDFDCLAGCVCHWYNSCGGQ (designed binder) [9.63.44-19] bind?
A: binds

Q: Does GCDVMQPYWGCEMDFDCLAGCVCHWYNSCGDL (designed binder) [9.63-16] bind?
A: binds

Q: Does GCDVMQPYWGCEMDFDCLAGCVCHWYNSCGVN (designed binder) [9.63.44-14 (SEQ ID NO: 514)] bind?
A: binds

Q: Does GCDVMQPYWGCEMDFDCLAGCICHWYNSCGRP (designed binder) [9.63-74] bind?
A: binds

Q: Does GCDVMQPYWGCKQDFDCLAGCICHWYNSCGYL (designed binder) [9.63-10] bind?
A: binds

Q: Does GCDVMQPYWGCKQDFDCLAGCVCHWYNSCGPS (designed binder) [9.63-1] bind?
A: binds

Q: Does GCDVMQPYWGCEIDFDCLAGCVCHWYNSCGQV (designed binder) [9.63.44-55] bind?
A: binds

Q: Does GCDVMQPYWGCEMDFDCLAGCVCHWYNSCGST (designed binder) [9.63.44-41] bind?
A: binds

Q: Does GCDVMQPYWGCEMDFDCLAGCICHWYNSCGAS (designed binder) [9.63-23] bind?
A: binds

Q: Does GCDVMQPYWGCEMDFDCLAGCVCHWYNSCGRL (designed binder) [9.63-21] bind?
A: binds

Q: Does GCDVMQPYWGCEMDFDCLAGCVCHWYNSCGGK (designed binder) [9.63-7] bind?
A: binds

Q: Does GCDVMQPYWGCEMDFDCLAGCVCHWYNSCGVE (designed binder) [9.63-68] bind?
A: binds

Q: Does GCDVMQPYWGCEMDFDCLAGCVCHWYNSCGWD (designed binder) [9.63-40] bind?
A: binds

Q: Does GCDVMQPYWGCEMDFDCLAGCVCHWYNSCGEK (designed binder) [9.63-17] bind?
A: binds

Q: Does GCDVMQPYWGCEMDFDCLAGCICHWYNSCGPE (designed binder) [9.63-66] bind?
A: binds

Q: Does GCDVMQPYWGCEMDFDCLAGCVCHWYNSCGFN (designed binder) [9.63.44-73] bind?
A: binds

Q: Does GCDVMQPYWGCKQDSDCLAGCICHWYNSCGTD (designed binder) [9.63-19] bind?
A: binds

Q: Does GCDVMQPYWGCEMDFDCLAGCICHWYNSCGDE (designed binder) [9.63-93] bind?
A: binds

Q: Does GCDVMQPYWGCEMDFDCLAGCVCHWYNSCGNS (designed binder) [9.63.44-80] bind?
A: binds

Q: Does GCDVMQPYWGCEMDFDCLAGCVCHWYNSCGRY (designed binder) [9.63.44-82] bind?
A: binds

Q: Does GCDVMQPYWGCEMDFDCLAGCICHWYNSCGRT (designed binder) [9.63.44-2-A] bind?
A: binds

Q: Does GCDVMQPYWGCEMDFDCLAGCVCHWYNSCGSM (designed binder) [9.63-45] bind?
A: binds

Q: Does GCDVMQPYWGCEMDFDCLAGCVCHWYNSCGTP (designed binder) [9.63.44-44] bind?
A: binds

Q: Does GCNIMLPFWGCGRDFECLAGCVCQYYQSCGPLQ (designed binder) [9.54.90-3x49] bind?
A: binds

Q: Does GCNIMLPFWGCGRDFECLAGCVCQYYQSCGPLI (designed binder) [9.54.90-3X83] bind?
A: binds

Q: Does GCNIMLPFWGCGRDFECLAGCVCQYYQSCGNYQ (designed binder) [9.54.90-3X50] bind?
A: binds

Q: Does GCNIMLPFWGCKQDSDCLAGCVCQYYQSCGSE (designed binder) [9.54-4] bind?
A: binds

Q: Does GCNIMLPFWGCKQDSDCLAGCVCQYYQSCGSD (designed binder) [9.54-21] bind?
A: binds

Q: Does GCNIMLPFWGCKQDSDCLVGCICQYYQSCGSI (designed binder) [9.54-10] bind?
A: binds

Q: Does GCNIMLPFWGCKQDFDCLAGCVCQYYQSCGQY (designed binder) [9.54-6] bind?
A: binds

Q: Does GCNIMLPFWGCKQDFDCLAGCVCQYYQSCGGR (designed binder) [9.54-32] bind?
A: binds

Q: Does GCNIMLPFWGCKQDSDCLAGCVCQYYQSCGMD (designed binder) [9.54-2] bind?
A: binds

Q: Does GCNIMLPFWGCKQDFDCLAGCVCQYYQSCGQH (designed binder) [9.54-9] bind?
A: binds

Q: Does GCNIMLPFWGCKQDFDCLAGCVCQYYQSCGDT (designed binder) [9.54-34] bind?
A: binds

Q: Does GCNIMLPFWGCKQDSDCLAGCVCQYYQSCGEE (designed binder) [9.54-17] bind?
A: binds

Q: Does GCNIMLPFWGCKQDSDCLAGCVCQYYQSCGPE (designed binder) [9.54-15] bind?
A: binds

Q: Does GCNIMLPFWGCKQDFDCLAGCVCQYYQSCGLE (designed binder) [9.54-5] bind?
A: binds

Q: Does GCNIMLPFWGCKQDSDCLAGCVCQYYQSCGPH (designed binder) [9.54-27] bind?
A: binds

Q: Does GCNIMLPFWGCKQDSDCLAGCVCQYYQSCGDD (designed binder) [9.54-19] bind?
A: binds

Q: Does GCNIMLPFWGCKQDSDCLAGCVCQYYQSCGTD (designed binder) [9.54-1] bind?
A: binds

Q: Does GCNIMLPFWGCKQDSDCLAGCVCQYYQSCGEN (designed binder) [9.54-24] bind?
A: binds

Q: Does GCNIMLPFWGCKQDFDCLAGCICQYYQSCGGE (designed binder) [9.54-39] bind?
A: binds

Q: Does GCNIMLPFWGCKQDSDCLAGCVCQYYQSCGDG (designed binder) [9.54-43] bind?
A: binds

Q: Does GCNIMLPFWGCKQDFDCLAGCVCQYYQSCGRP (designed binder) [9.54-13] bind?
A: binds

Q: Does GCNIMLPFWGCKQDSDCLAGCICQYYQSCGQN (designed binder) [9.54-12] bind?
A: binds

Q: Does GCNIMLPFWGCKQDSDCLAGCVCQYYQSCGTN (designed binder) [9.54-42] bind?
A: binds
